Assay results reported in the supplement of paper PMC11865577.

Legend:
Assay in all cases: pull-down binding Z-score (relative to library population); higher = stronger binding
[1] = test system: G-clamp-N3 (biotin conjugate); conditions: RNA library: Library-1 (pre-miRNA loops + repeats)
How it was run: (§1)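 An RNA library (1 μg) carrying a Cy5 or Cy3 end label was heat-folded in phosphate/NaCl/KCl buffer, then incubated for 60 min at 25 °C with streptavidin beads loaded with 100 pmol of biotin-conjugated small molecule. The beads were washed three times, and bound RNA was released in hot SDS and hybridised to a DNA barcode microarray for 20 h at 55.5 °C. Each binding score was derived by subtracting the signal from beads without compound, averaging the barcoded replicate probes after removing the highest and lowest, and expressing the result as a Z-score relative to the library mean and standard deviation.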

[2] = test system: TO-3-N3 (biotin conjugate); conditions: RNA library: Library-2
How it was run: as §1

[3] = test system: TO-3-N3-2 (biotin conjugate); conditions: RNA library: Library-2
How it was run: as §1

TO-N3 (biotin conjugate) = conditions: RNA library: Library-2
How it was run: as §1

[4] = test system: TO-N3-2 (biotin conjugate); conditions: RNA library: Library-2
How it was run: as §1

| Sequence | pull-down binding Z-score [1] | pull-down binding Z-score [2] | pull-down binding Z-score [3] | pull-down binding Z-score (TO-N3 (biotin conjugate)) | pull-down binding Z-score [4] |
| --- | --- | --- | --- | --- | --- |
| GACACUUUCACUAUAUAUAGUGGC [hsa-mir-3156-3] | -0.25 | -0.049 | -0.0836 | -0.354 | -0.533 |
| AGUUCCUGAUUAAGAAAUGGAAUU [hsa-mir-4699] | -0.224 | -0.435 | -0.107 | -0.814 | -1 |
| AAAUAAGAGGCUAGGAUUGCCUCUUAUUU [hsa-mir-3201] | 0.838 | -0.688 | -0.362 | -1.18 | -1.57 |
| UCUUCCCAGAAUUGGGAAAA [hsa-mir-320c-2] | -0.574 | -0.813 | -0.72 | -1.33 | -1.68 |
| CCAGUGCUGGGCUCAGACCCUGG [hsa-mir-150] | 0.197 | -0.0352 | -0.226 | 0.0645 | 0.701 |
| CCACCCACCAGGGAGCUUUCCAUGGGCUGUGGG [hsa-mir-4725] | 1.47 | 0.47 | 0.0654 | 0.567 | 0.788 |
| CGCGCCCGGCCUAACUUUUAAGAAACGUCGGCCCGGGAGCG [hsa-mir-5095] | -0.0298 | 1.24 | 0.695 | 1.27 | 1.15 |
| GCCUGCCCUGAGUCCCCCAGCAGGU [hsa-mir-3907] | -0.55 | 1.45 | 0.663 | 1.46 | 0.912 |
| AGUUACACAGCUCACGAGUGCCU [hsa-mir-370] | -0.352 | -0.261 | -0.0679 | 0.113 | 0.694 |
| GGGCCGUGCACCCGUGGGCCCC [hsa-mir-1915] | 1.73 | -0.204 | 0.0124 | 0.335 | 1.28 |
| CCCACUCCAAAGUUCACAGAAUGGGUGG [hsa-mir-541] | 0.626 | 2.05 | 0.837 | 1.8 | 1.15 |
| CUUUCUGUUGUCUGAAAGAAAGGAAAG [hsa-mir-519a-1_519a-2] | -0.55 | -0.467 | -0.315 | -0.572 | -0.239 |
| CAUGCAGCAUGCUUGUCUG [hsa-mir-767] | -0.359 | -0.275 | -0.377 | -0.247 | 0.0549 |
| CGAGGUGG [hsa-mir-4302] | -0.91 | 0.954 | -0.0533 | 0.973 | 0.675 |
| CUCUCCUGACCAGCUGAGCUGGAGGAGAG [hsa-mir-3160-2] | 1.35 | -0.0412 | -0.397 | -0.48 | -1.08 |
| UGCUGGAGAAGUGUUU [hsa-mir-557] | -0.431 | 0.516 | 0.0975 | 0.49 | 0.156 |
| AGGCAACAUGGCCGAGAGGCCGGGGCCU [hsa-mir-564] | 2.93 | -0.144 | -0.533 | -0.12 | 0.551 |
| ACCUGUGUGUGCCCAAGUGUUUCUAGCAAACACAGGG [hsa-mir-3649] | 0.215 | 0.76 | 0.425 | 0.757 | 0.193 |
| UGAGUGCUAUUUCAGUGCAACA [hsa-mir-362] | -0.0128 | 0.967 | 0.108 | 0.821 | 0.0784 |

| Sequence | pull-down binding Z-score [1] | pull-down binding Z-score [2] | pull-down binding Z-score [3] | pull-down binding Z-score (TO-N3 (biotin conjugate)) | pull-down binding Z-score [4] |
| --- | --- | --- | --- | --- | --- |
| AGGUUUAUGACUGGGCAUUUCUCACCCAAUGCCCAAUAUUGAACUU [hsa-mir-4431] | -0.59 | -0.564 | -0.213 | -0.752 | -0.666 |
| CUCACCAUAGUGGUGGA [hsa-mir-1288] | -1.2 | -0.33 | -0.646 | -0.412 | -0.588 |
| UGGUGGUGAAUUCAUGAGUCGCCA [hsa-mir-3115] | 0.372 | -0.509 | -0.498 | -0.671 | -0.62 |
| CAGAGGCAUCGGGUCAG [hsa-mir-4746] | 1.75 | 0.807 | 0.516 | 1.19 | 1.35 |
| GUCAGGAGUGGCUUUCCUGAC [hsa-mir-4462] | -0.232 | 0.414 | -0.271 | 0.279 | -0.397 |
| GAGGAUGCAGGAGAGGAAGGGGGCUUCUUUUUGACGCCUACUUCAUCAGCUGCUCCUC [hsa-mir-4330] | 0.824 | 2.31 | 2.41 | 2.26 | 1.56 |
| AUUUGCCAUCACCUUUACCUUUAAUGGCAAAA [hsa-mir-548av] | -0.985 | 0.0312 | -0.205 | -0.188 | -0.906 |
| AGGCAUGGGUGGCU [hsa-mir-8085] | 0.379 | 0.237 | 0.062 | 0.428 | 0.625 |
| UGCUGGUGCUAGAGAGGAAAGCA [hsa-mir-4748] | 1 | 0.426 | 0.315 | 0.985 | 2.22 |
| CUUUUUGCUGAUGGAGGGUCUUGCCUCCAUGGGGAUGGCUG [hsa-mir-4502] | 1 | 0.828 | 0.159 | 0.938 | 0.571 |
| CUUCCCAUUUAAAAGUAAUGGCACA [hsa-mir-603] | -2.03 | 0.893 | 0.425 | 0.861 | 0.104 |
| AGUUGUGAAUUCUCAAAACACCU [hsa-mir-660] | -0.342 | -0.401 | -0.349 | -0.417 | -0.129 |
| UCAGACACAUCAGAUCCCUUAUCUGUAAAAUGGGCAUGA [hsa-mir-640] | 0.152 | -0.19 | -0.013 | 0.00353 | 0.521 |
| UUUUUUUCCAAUGAAAAUAACGAAACCUGUUAUUUCCCAUUGAGGGGGAAAAA [hsa-mir-4484] | 0.398 | -1.12 | -0.221 | -1.15 | -0.641 |
| AGGACACAGGCUGGCACUGAGGUCCC [hsa-mir-6887] | -0.394 | 0.0768 | -0.0807 | 0.639 | 1.41 |
| GUGAACAUUGCAU [hsa-mir-4301] | -0.223 | -0.353 | -0.219 | -0.356 | -0.237 |
| UCACAGGGCUCAGGGAAUGUGUCUGCACCUGUGA [hsa-mir-587] | 0.296 | 0.431 | 0.0576 | 0.469 | 0.206 |
| CUGGAGUCGCCUGAGUCAUCACUCAG [hsa-mir-3065] | -0.66 | -0.142 | -0.276 | 0.0597 | 0.525 |
